Test results taken from the DeepSol protein solubility set.

assay: soluble on expression in E. coli; label from the status in PepcDB or PDB records

Row | Sequence | soluble on expression in E. coli
1 | AKKLKKEYLDWYNQILEFSNLSNNSVKIDTPFKDNSLDNLKIYALYDQSRDMITLTDDGYTIFGLENNGVSINKFKKRKKIFEEHLSAYGIKYNDKTHEIFVQTNFKNFNKSKHNLLQCLIFVNDMYLLSNPKSQNIFTEDVANKLDEHNIYYGRDIPIIGSSGVVHNFDFFISAKKNQKEKFINVFSNPNNSMIIKSKITDAMQAKKIKRHRQNEFIFILNDSKKEINEHNKNLLHENYISTIDYSELDEKIGLL | not soluble
2 | MSLGTFRFGTSATPEGKTLLVDSKGLILDGKHIIPVMGEIHYSRVPESEWRREIRKMKAGGINIISTYIFWIHHEPEEGKWNWSGNHNLRRFVRICAEENVMLVLRLGPFCHGEVYQGGIPSWVHEKAGQNPKYKIRARTPGFLEDCTELYNTIFAQVNGLLWKDGGPVVGVQIENESRGPWDYLEALKNIAVKAGFDVPFYTRTGWPALRGKEVFGQLLPLYGDYADGFWDRKLEDMPGSYADAFIMRDKRMSSAIATETFSKEELSEDSPSLSSKLSYPYFTCELGGGMMPAYHRRININGKELKPLVICKLGSGSNLPGYYMYHGGTNPYNPLHTMGETQSSPGTNHNDLPHMTYDFQAPLGEVGQVFETPFHEGRFIHQMLTDWGSELLQMNVDSLSRHYARRGAFEFYNDYVRIKNESGTSHVTFKDYRTEGATIDWTTVEPFCKVDGLIYFIEIRGKKPQISVDGKVYTCKLNKQQKAGKLNVCVLSYEKAKTAYKIDGKLLYAKNGGILYKSDSCIVEEVWTKSPVIAATVTEVKKADAPRVVPMGRQAVAAQPVEEDFAKAAVYTINYDTSGINNYDNLFLRINYRGDVARVYADGRLVADNFWNGKEMWVRMADLVGKKVELKILPLRKDAPVYFQKEQKAMIEATKGDYMLGLDSVEVIERHTLEFNDTEGHHHHHH | soluble
3 | MAHHHHHHMGGFSSKNMEYYNYASMKLLDRSKYINEEEEEDDYHYCKETDIRETIKKAREIKNCNYKESMDLYIKALKTLKKLKENNSRIYRNVLEFEIRPQEIANSMSLKNSLEKNMYMKKEGDKDYTGGPSNDNQTISINNKIASLYNEIADLCCIHDFIEKSLFYYDKACSYNPSKIDYIYKKGVLFQQMNDTERAINTFKIILSSEPNHIPTLFSLGNLYRYIDNHIALSYFEAILKIEPNNTEVLSLIASCYDNLGKLNEAISYQNKAVQIDPDNFNHKKFAQRLIEMKSHN | not soluble
4 | MSLDEGRTPILGEHPRPTMVRDNCTMLNGWWDYAIVSIPEDETAPKWRKTAAMLTRDEAVRAVKETAIPQTFDGKILVPFSPESALSGVHQTIYPDNLLWYRTVVHPVTLGGEETVRQIGDANRLILHFEAVDYVCACYVNGQLAGTHVGGYLPFDVDISAFIDPDDAFEIALCVYDPNDSGTQLRGKQKIEREGIWYTAQSGIWQSVWLEIVPEAYLRTLTLKGASDGKLFVRAEIGGDKPNAKLHIVVTDPADGTVVADETLPAGVRKVRAEIATAAEHLWSPADPYLYDVRAELRYGSAKPAETAGDAAVVQSQPMDVVSSYCAFRSVEIKPDTKGVARFHLNGKPLFVKGVLDQGYWPDGLMTAPDDEALTHDITAMKNAGFNMLRKHIKIESARWYYHCDRLGMLVWQDAVSGGGTDGEYNAWTTNRKPTLIRSTWNKFRDDTAKHFTALGADDPIYRRDWSRTCDAMVHMLGGHPSIVTWTLFNEGWGQFDACDATERIHALDPTRPIDATSGWYDQHCGDYHSVHNYFRPLEIYPDKGPLRGYVAEFEKKHRRRRRAAHYVVLPVARHGVRAFVISEFGGLAQLVPEHAAVSRAYGYGEYDSIDDWRAAVRSVLASAAALESRGLAGYVYTQVSDVEEELNGLLTYDRRVDKFAEEGHHHHHH | not soluble
5 | MGSDKIHHHHHHMVKVVKFGGSSLASAEQFTKVGDIIRSDESRKYVVPSAPGKRNSKDTKVTDMLYACYDLAENDQDFKVMLRKIKDRYDSIINGLHLKLALDEEFKIIAENFKAKAGADYAASRGEYLNGIIMANYLGYEFIDSATVIFFDENGNFDAEKTDKVLSKKLEQTEKAVIPGFYGAGPDGKVVTFSRGGSDITGSIVSKACHASMYENWTDVSGCLVADPRIIDNPQPIKVVTYRELRELSYMGASVLHEDAVFPVRKAGIPINIRNTNDPEAPGTLIVESTCQKPDYTITGIAGKKGFVAVNIDKDKMNSEVGFCRKALQAFEENGISIEHMPSGIDTMTVFVHQAEFEGKEQQVISSIRRLAHPDIIDLESDLALIAVVGRGMKSNRGTAGRIFSALAHANINVRMIDQGSSELNIIIGVSNDDFDKAIKAIYDIFVVTQL | not soluble
